Assay results taken from patent US20140056902A1 (Kyowa Kirin, published 2014).

T1: human mature dimer BMP9 recombinant protein (manufactured by R&D systems, Cat#3209-BP) (human, UniProt Q9UK05 320-429)
T1 construct: Bought protein; also called human BMP9; human BMP9 recombinant protein (manufactured by R&D systems)
T1 sequence: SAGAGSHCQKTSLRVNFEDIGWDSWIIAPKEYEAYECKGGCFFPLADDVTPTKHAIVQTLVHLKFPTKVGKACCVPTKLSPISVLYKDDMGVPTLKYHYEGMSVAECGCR

T2: human BMP9 recombinant protein prepared according to Example 12 of WO 2010/126169 (N-terminal His-tagged … (human, UniProt Q9UK05 320-429; Q9UK05 23-319)
T2 construct: not shown: N-terminal His tag
T2 sequence 1: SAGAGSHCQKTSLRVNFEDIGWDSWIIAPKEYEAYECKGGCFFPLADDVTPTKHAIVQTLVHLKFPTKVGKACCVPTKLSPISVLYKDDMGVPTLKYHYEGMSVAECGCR
T2 sequence 2: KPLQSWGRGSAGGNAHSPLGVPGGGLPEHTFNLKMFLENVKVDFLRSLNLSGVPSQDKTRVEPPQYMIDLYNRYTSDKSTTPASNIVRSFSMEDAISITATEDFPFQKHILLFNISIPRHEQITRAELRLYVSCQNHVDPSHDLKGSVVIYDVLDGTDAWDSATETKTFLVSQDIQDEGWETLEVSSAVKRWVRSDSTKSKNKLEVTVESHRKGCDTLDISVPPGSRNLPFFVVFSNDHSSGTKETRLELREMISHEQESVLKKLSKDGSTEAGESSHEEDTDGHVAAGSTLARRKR

T3: human mature dimer BMP10 recombinant protein (manufactured by R&D systems, Cat#2926-BP) (human, UniProt O95393 317-424)
T3 construct: Bought protein; also called human BMP10
T3 sequence: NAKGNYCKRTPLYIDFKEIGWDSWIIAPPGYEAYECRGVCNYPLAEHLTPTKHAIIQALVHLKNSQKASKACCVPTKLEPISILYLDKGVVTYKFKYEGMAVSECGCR

T4: N-terminal His-tagged BMP10 expressed by the pLN1V5_human BMP10 vector (human, UniProt O95393 22-424)
T4 sequence: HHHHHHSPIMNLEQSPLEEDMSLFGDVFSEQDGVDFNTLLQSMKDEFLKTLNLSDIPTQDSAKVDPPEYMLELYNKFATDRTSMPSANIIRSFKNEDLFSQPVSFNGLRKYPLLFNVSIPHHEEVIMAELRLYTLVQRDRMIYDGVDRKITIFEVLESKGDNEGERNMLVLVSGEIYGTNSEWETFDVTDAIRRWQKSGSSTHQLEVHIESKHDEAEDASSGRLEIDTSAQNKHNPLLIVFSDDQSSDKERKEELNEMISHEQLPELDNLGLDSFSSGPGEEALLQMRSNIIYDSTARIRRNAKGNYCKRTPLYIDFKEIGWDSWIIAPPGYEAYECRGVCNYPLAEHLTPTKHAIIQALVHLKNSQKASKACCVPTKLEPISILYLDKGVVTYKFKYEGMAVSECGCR

T5: chimeric protein 5 of human BMP9/10 region C (human, UniProt Q9UK05 320-429; Q9UK05 23-319)
T5 construct: Made in the pLN1V5_human BMP9 vector (His-tagged complex); also called Chimera 5; human BMP9/BMP10 chimeric protein 5; not shown: N-terminal His tag
T5 chain 1: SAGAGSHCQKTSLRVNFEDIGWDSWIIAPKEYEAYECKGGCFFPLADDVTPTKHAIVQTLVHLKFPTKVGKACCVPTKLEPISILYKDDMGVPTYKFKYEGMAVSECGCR
T5 chain 2: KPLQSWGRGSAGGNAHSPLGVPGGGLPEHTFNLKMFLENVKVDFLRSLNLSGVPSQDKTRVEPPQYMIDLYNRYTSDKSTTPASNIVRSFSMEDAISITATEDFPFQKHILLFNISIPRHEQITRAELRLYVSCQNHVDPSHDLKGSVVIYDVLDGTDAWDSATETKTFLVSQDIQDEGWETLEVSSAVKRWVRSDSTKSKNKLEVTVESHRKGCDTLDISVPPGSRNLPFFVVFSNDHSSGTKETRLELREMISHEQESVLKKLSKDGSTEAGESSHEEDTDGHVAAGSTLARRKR


Legend:
[1] = molecular target: T1, human mature dimer BMP9 recombinant …; experiment: ELISA, immobilized human BMP9 (100 ng/mL coat), biotin-labeled antibody titrated, absorbance 450-570 nm; unit ng/mL from the legend
Description: First, 100 ng/mL of human mature dimer BMP9 recombinant protein (manufactured by R&D systems, Cat#3209-BP) prepared in 50 mmol/L NaHCO₃ buffer was added to a 96-well plate for ELISA (F96 MAXISORP NUNC-IMMUNO PLATE, manufactured by Thermo Fisher Scientific, Cat#439454) at an amount of 50 μL/well, and left at 4° C. overnight for adsorption.
After removal of the reagent for immobilization, 200 μL/well of SuperBlock (manufactured by Thermo […], Cat#37535) was added, and left at room temperature for 1 hour for blocking, and washing was carried out using TBST three times. Subsequently, the biotin-labeled 6D10-1-1 antibody, 10D5-2-3 antibody, 3B7-3-3 antibody or R&D antibody was prepared at a concentration of 1, 5, 20, 100, or 300 ng/mL using 10% Super Block in TBST. Each 50 μL/well thereof was aliquoted, and left at room temperature for 1 hour.
(§1) The plate was washed with TBST five times, and 50 μL/well of the TMB substrate reagent (TMB+ Substrate-Chromogen, manufactured by Dako, Cat#S1599) was added for color-development. When proper color was developed, 50 μL/well of the 1 N sulfuric acid solution (manufactured by Wako, Cat#192-04755) was added, and absorbance (450 nm-570 nm) at a sample wavelength of 450 nm and at a reference wavelength of 570 nm was determined using a plate reader (manufactured by Spectra Max, Molecular Devices).

[2] = molecular target: T2, human BMP9 recombinant protein prepared …; experiment: SPR (BIAcore 2000), antibody captured on anti-mouse IgG, human BMP9 recombinant protein as analyte, single cycle kinetics
Text: The binding activity (affinity) of the obtained antibodies to human BMP9 recombinant protein was examined using BIAcore 2000 (manufactured by GE Healthcare). After anti-mouse IgG antibody was immobilized onto a CM5 sensor chip using a Mouse Antibody Capture Kit (manufactured by GE Healthcare), anti-human BMP9 antibody was coupled to an RU value of 700-1100.
Thereafter, 0.152 nmol/L, 0.457 nmol/L, 1.37 nmol/L, 4.1 nmol/L, 12.3 nmol/L, 36.89 nmol/L, 110.67 nmol/L, and […] of the human BMP9 recombinant protein prepared in Example 7-1 were prepared by using an HBS-EP solution (manufactured by GE Healthcare) and added as analytes, and binding affinity was measured.
Based on the obtained values, the dissociation constant (Kd value) was calculated by single cycle kinetics (BIAevaluation Software ver. 3, manufactured by GE Healthcare).

[3] = molecular target: T3, human mature dimer BMP10 recombinant …; experiment: ELISA, immobilized antigen (100 ng/mL coat), biotin-labeled antibody at 100 ng/mL, absorbance 450-570 nm
Description: To examine specificity of the obtained antibodies to human BMP9, their binding ability to human BMP9 and human BMP10 having the highest homology to human BMP9 was tested by comparison. First, 100 ng/mL of human mature dimer BMP9 recombinant protein (manufactured by R&D systems, Cat#3209-BP), or human mature dimer BMP10 recombinant protein (manufactured by R&D systems, Cat#2926-BP) prepared in 50 mmol/L NaHCO₃ buffer (manufactured by Wako, Cat#191-01305) was added to a 96-well plate for ELISA (F96 MAXISORP NUNC-IMMUNO PLATE, manufactured by Thermo Fisher Scientific, Cat#442404) at an amount of 50 μL/well, and left at 4° C. overnight for adsorption.
Subsequently, 6D10-1-1 antibody, 10D5-2-3 antibody, 3B7-3-3 antibody, R&D antibody, or anti-BMP10 antibody (manufactured by R&D, Cat#MAB2926) that was labeled with biotin using a Biotin Labeling Kit-NH2 (manufactured by COSMO BIO, Cat#LK03) was prepared at a concentration of 100 ng/mL using 10% Super Block in TBST which was prepared by mixing SuperBlock and TBST at a ratio of 1:9. 50 μL/well thereof was aliquoted as a primary antibody, and left at room temperature for 1 hour.
as §1

[4] = molecular target: T4, N-terminal His-tagged BMP10 expressed …; experiment: antigen-immobilized ELISA, antigen coated at 3 ug/mL
Description: (§2) Antigen immobilized ELISA of the obtained antibodies was performed using the chimeric protein. 3 μg/mL of the recombinant human BMP9, BMP10, and BMP9/10 chimeric proteins of Example 20-2 in 50 mmol/L NaHCO₃ buffer were added to a 96-well plate for ELISA (F96 MAXISORP NUNC-IMMUNO PLATE, manufactured by Thermo Fisher Scientific, Cat#442404) at an amount of 50 μL/well, and left at 4° C. overnight for adsorption.
(§3) After removal of the reagent for immobilization, 200 μL/well of 1% BSA-PBS was added, and left at room temperature for 1 hour for blocking, and washing was carried out using PBST five times. […]
(§4) The plate was washed with PBST ten times, and 50 μL/well of the TMB chromogen reagent (TMB+Substrate-Chromogen, manufactured by Dako, Cat#S 1599) was added for chromogenic reaction. When the intensity of chromogenic reaction became strong enough, 50 μL/well of a 1 N sulfuric acid solution (manufactured by Wako, Cat#192-04755) was added, and absorbance at 450 nm and 570 nm was determined using a Multiskan Spectrum (manufactured by Thermo Labsystems).

[5] = molecular target: T5, chimeric protein 5 of human BMP9/10 …; experiment: antigen-immobilized ELISA, antigen coated at 3 ug/mL, antibody 1000 ng/mL; + = absorbance of 1 or more
Description: as §2, §3, §4

Row | EC50 (read off the curve) [1] [ng/mL] | Kd [2] [nM] | Relative binding affinity (to R&D antibody) [2] [fold] | binding result [3] | binding result [4] | binding result [5] | Binder
1 | ~8 | 0.0297 | 20.7 | no binding (tested: 100 ng/mL) | no binding | – | 6D10-1-1 antibody (antibody, mouse IgG1, V domains shown, Mouse monoclonal from a BMP9 KO mouse hybridoma; also called 610D-1-1 antibody) VH: QVQLQQSGAELVRPGTSVKVSCKASGYAFTNYLMEWIKQRPGQGLEWIGVIHPGIGVTNYNEKFKGKATLTADISSSTAYMQLSSLTSEDSAVYFCARRANWDLYYFDYWGQGTTLTVSS VL: DIQMTQITSSLSASLGDRVTISCSASQDISNYLNWYQQKPDGTVKLLIYYTSSLHSEVPSRFSGSGSGTDYSLTISNLEPEDIATYYCQQYINLPLTFGAGTKLELKR
2 | – | 0.00969 | 63.6 | no binding (tested: 100 ng/mL) | no binding | binds | 10D5-2-3 antibody (antibody, mouse IgG1, V domains shown, Mouse monoclonal from a BMP9 KO mouse hybridoma; mouse IgG1 heavy chain, kappa light chain) VH: EVKLEESRGGLVQPGGSMKLSCVASGFTFSNYWMNWVRQSPEKGLEWVAHIRLKSDNYATHYAESVRGRFTISRDDSKSSVFLQMNNLRAEDTGIYYCTGGSNYVFAFWGQGTLVTVSA VL: not shown
